Source: patent US20230134580A1 (SHANGHAI HENLIUS BIOTECH, published 2023)
Changes are numbered by the printed parent chain. Where two headings read alike, the source gives them in different places.

Columns and labels:
[1] = target: T1, human TIGIT (T cell immunoreceptor with Ig and ITIM domains), expressed on cells (human, UniProt Q495A1 22-244); assay: flow cytometry, whole cell binding to Jurkat cells stably expressing human TIGIT; anti-human IgG Fc AlexaFluor488
T1 construct: Stably transfected Jurkat cells (also 293T cells; primary T cells in the MLR); also called h-TIGIT
T1 sequence: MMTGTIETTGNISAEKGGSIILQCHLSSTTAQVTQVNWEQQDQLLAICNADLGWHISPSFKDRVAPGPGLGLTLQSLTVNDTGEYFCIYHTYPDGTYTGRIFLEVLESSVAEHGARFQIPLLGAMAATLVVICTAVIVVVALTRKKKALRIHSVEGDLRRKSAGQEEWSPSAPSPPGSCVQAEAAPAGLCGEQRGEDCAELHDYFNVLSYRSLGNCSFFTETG
Procedure: Y axis is values of Mean Fluorescence Intensity of AlexaFlour 488. X axis is values of antibody concentrations in nanomolar.
The binding affinities of the humanized bivalent antibodies to human TIGIT were determined by whole cell binding to h-TIGIT stably expressed on Jurkat cells. Briefly, antibodies were incubated with h-TIGIT transfected Jurkat cells (0.2×10⁶/well in 100 μl) for 30 min in FACS buffer. The cells were washed once, then incubated with anti-human IgG Fc AlexaFluor488 (1:500).

[2] = target: T1, human TIGIT (T cell immunoreceptor with …); assay: cell-based or functional assay
[3] = target: T1, human TIGIT (T cell immunoreceptor with …); assay: cell-based or functional assay; remark: listed apart in the source
[4] = target: T1, human TIGIT (T cell immunoreceptor with …); assay: cell-based or functional assay; remark: listed apart in the source
[5] = target: T1, human TIGIT (T cell immunoreceptor with …); assay: whole cell binding assays, n=3 (FIG. 10A)
Procedure: (§1) Jurkat cells stably expressing human TIGIT and NFAT reporter gene were established. Specifically, Jurkat cells were transfected with human TIGIT expression vector by electroporation, and cells stably expressing human TIGIT were selected by 1 μg/ml puromycin during cell culture. Representative antibody clones were incubated at different concentrations with h-TIGIT stably expressing Jurkat cells (0.2×10^6/ml) in 100 μl/well in 96-well plate in FACS buffer (PBS with 1.5% FBS) for 30 min. After washing, Alexaflour 488 conjugated anti-human IgG Fc secondary antibody (Alexa Fluor® 488 AffiniPure Goat Anti-Human IgG, Fcγ fragment specific, Jackson labs, 1:500 dilution) was added and incubated for 30 min. After washing, mean fluorescence intensity was measured using CytoFlex (Beckman Coulter) by gating live cell population. Binding affinity was calculated using GraphPad Prism.

[6] = target: T1, human TIGIT (T cell immunoreceptor with …); assay: cell-based or functional assay; remark: listed apart in the source
[7] = target: T1, human TIGIT (T cell immunoreceptor with …); assay: cell-based or functional assay; remark: listed apart in the source
[8] = target: T1, human TIGIT (T cell immunoreceptor with …); assay: flow cytometry, whole cell binding to Jurkat cells stably expressing human TIGIT; Alexa Fluor 488 anti-human IgG Fc secondary antibody
Source text: FIGS. 1A-1C depict whole cell binding of representative VHH bivalent antibodies to human TIGIT determined by flowcytometry assays. […] Y axis represents Mean Fluorescence Intensity of AlexaFlour 488. X axis represents antibody concentrations in nanomolar. […] FIG. 1C is a schematic of the structure of a TIGIT VHH bivalent antibody.
as §1

[9] = target: T1, human TIGIT (T cell immunoreceptor with …); assay: cell-based or functional assay; remark: listed apart in the source
[10] = target: T1, human TIGIT (T cell immunoreceptor with …); assay: cell-based or functional assay; remark: listed apart in the source
[11] = target: T2, recombinant human TIGIT extracellular domain (ECD) (human, UniProt Q495A1 22-138); assay: blocking ELISA, VHH clone against PVR binding to h-TIGIT
T2 construct: Bought protein (Arco Bio); also called h-TIGIT ECD; h-TIGIT
T2 sequence: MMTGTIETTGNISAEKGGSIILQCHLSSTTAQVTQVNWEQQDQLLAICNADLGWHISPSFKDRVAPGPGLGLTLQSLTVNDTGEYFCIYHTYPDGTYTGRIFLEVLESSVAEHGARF

B1: 1G1-F-G-ERES humanized bivalent antibody (Fc fusion)
VHH: QVQLVESGGGVVQPGRSLRLSCAASGPSFSSYPMGWFRQGPGKERESVAAISSDGRFTYYADSVKGRFTISRDNSKNTLYLQMNSLRAEDTAVYYCAARDSGSGYYSRAQWYDYWGQGTLVTVSS
notes: Humanized on germline IGHV-3-30*01
EC50 (read off the curve) [1]: ~0.2 nM | EC50 (read off the curve), NFAT luciferase reporter, TIGIT blockade [2]: 1 to 1.6 nM

B2: Bivalent 2A3 antibody (2A3-Fc) (Fc fusion)
chain: B1 VHH with P27G, G40A, G55M, S103V
notes: ExpiCHO, protein A purified; also called 2A3 clone; parental 2A3-Fc; not shown: human IgG1 CH2 and CH3 domains
EC50 (read off the curve), NFAT luciferase reporter, TIGIT blockade [3]: ~0.7 nM | EC50, NFAT luciferase reporter assay (n=3) [4]: 0.48 nM | EC50 [5]: 0.32 nM | EC50 (read off the curve), NFAT luciferase reporter, TIGIT blockade [6]: ~1 nM

B3: 3G6 bivalent VHH antibody (Fc fusion)
VHH: QVQLVESGGGLVQAGGSLSLSCAASGSIFGISVMGWYRQAPGEQRDLVATLTRAGLTTYGDSVKGRFSISRDSAKNTVYLQMNNLKPEDTAVYYCHANIMESAASTFGRYWGQGTQVTVSS
EC50 (read off the curve), NFAT luciferase reporter, TIGIT blockade [7]: ~3 nM

B4: 2B10 bivalent VHH antibody (Fc fusion)
VHH: QVKLEESGGGLVQTGDSLRLSCAASSRIFRRYAMGWFRQAPGKEREFVAAITWSGASTTYTDSVKGRFTISRDSAENTTYLQMTSLRPEDTAVYYCAADPWGSVIVGTAEYEYWGQGTLVTVSS
EC50 (read off the curve), NFAT luciferase reporter, TIGIT blockade [7]: ~0.7 nM

B5: 3G7 bivalent VHH antibody (Fc fusion)
VHH: QVQLVESGGGLVQAGDSLRLSCEASGRTLSTYTMGWFRRAPGKEREFVGLAWPSPSTYVVDSVKGRFTISRDNAKNTIYLQMNSLKPEDTAIYYCAADYKSLTQSWLNAALDYWGQGTQVTVSS
notes: Bivalent VHH-CH2-CH3, ExpiCHO, Protein A purified
EC50 (read off the curve), NFAT luciferase reporter, TIGIT blockade [7]: ~1 nM | EC50 (read off the curve) [8]: ~0.3 nM

B6: 3F10 bivalent VHH antibody (Fc fusion)
VHH: QVQLVESGGGLVQAGGSLRLSCASSEHTFSNFPMGWFRQAPGKERNVVAAIDSSGRLTYYADSVKGRFTISKDNAKSTVYLQMNSLKSEDTARYYCAARTGGVGYYSRSSFYNYWGQGTLVTVSS
EC50 (read off the curve), NFAT luciferase reporter, TIGIT blockade [7]: ~0.3 nM

B7: 1C12-EREF humanized bivalent antibody (Fc fusion)
VHH: QVQLVESGGGVVQPGRSLRLSCAASSRIFSRYGMGWFRQAPGKEREFVAAISWNGASTTYTDSVKGRFTISRDNSKNTLYLQMNSLRAEDTAVYYCAADPWGAVKLGTAEYEYWGQGTQVTVSS
EC50 (read off the curve), NFAT luciferase reporter, TIGIT blockade [9]: ~2 nM

B8: 1C12-EREW humanized bivalent antibody (Fc fusion)
VHH: B7 VHH with F47W
EC50 (read off the curve), NFAT luciferase reporter, TIGIT blockade [9]: ~3 nM

B9: 1C12-GLEW humanized bivalent antibody (Fc fusion)
VHH: B7 VHH with E44G, R45L, F47W
EC50 (read off the curve), NFAT luciferase reporter, TIGIT blockade [9]: ~2 nM

B10: 1C12-chimeric (1C12 bivalent VHH antibody) (Fc fusion, not shown: small tags and cut ends)
chain: B7 VHH with V11L, P14T, R16D, N74S, S75A, K76E, L79T, M83I, A88P
EC50 (read off the curve), NFAT luciferase reporter, TIGIT blockade [2]: ~0.8 nM | EC50 (read off the curve), NFAT luciferase reporter, TIGIT blockade [9]: ~0.7 nM | EC50 (read off the curve), NFAT luciferase reporter, TIGIT blockade [10]: ~1 nM

B11: 2B7 bivalent VHH antibody (Fc fusion)
VHH: QVQLVESGGGLVQAGGSLRLACAASGRTFSSYPMGWFRQGPGKERESVAAISSDGRFTYYAASVKGRFTISKDNAKSAAFLQMNSLKPEDTAVYYCAARDSGSGYYSRAQWYDYWGQGTQVTVSS
notes: as for B5
EC50 (read off the curve) [8]: ~0.2 nM | EC50 (read off the curve), NFAT luciferase reporter, TIGIT blockade [10]: ~1 nM

B12: 1G1-chimeric (1G1 bivalent VHH antibody) (Fc fusion)
chain: B11 VHH with G16D, A21S, A23V, R27P, T28S, Q120L
notes: Llama VHH of 1G1 with human IgG1 CH2 and CH3 domains; also called chimeric clone; not shown: human IgG1 CH2 and CH3 domains
EC50 (read off the curve) [1]: ~0.08 nM | EC50 (read off the curve) [8]: ~0.1 nM | EC50 (read off the curve), NFAT luciferase reporter, TIGIT blockade [2]: ~0.7 nM | EC50 (read off the curve), NFAT luciferase reporter, TIGIT blockade [10]: ~1 nM

B13: 13H11 VHH (VHH)
VHH: B11 VHH with A21S, R27L, S31M, P33A
notes: Tested as VHH in SS320 culture supernatant
% inhibition of PVR binding to h-TIGIT [11]: > 90%

B14: 1G1 VHH (VHH)
VHH: B11 VHH with G16D, A21S, A23V, R27P, T28S, Q120L
notes: as for B13
% inhibition of PVR binding to h-TIGIT [11]: > 90%

B15: 2B7 VHH (VHH)
VHH: B11 VHH
notes: as for B13
% inhibition of PVR binding to h-TIGIT [11]: > 90%

B16: 2B10 VHH (VHH)
VHH: B4 VHH
notes: as for B13
% inhibition of PVR binding to h-TIGIT [11]: > 90%

B17: 1C12 VHH (VHH)
VHH: B7 VHH with V11L, P14T, R16D, N74S, S75A, K76E, L79T, M83I, A88P
notes: as for B13
% inhibition of PVR binding to h-TIGIT [11]: > 90%

B18: 3G6 VHH (VHH)
VHH: B3 VHH
notes: as for B13
% inhibition of PVR binding to h-TIGIT [11]: > 90%

B19: 3G7 VHH (VHH)
VHH: B5 VHH
notes: as for B13
% inhibition of PVR binding to h-TIGIT [11]: > 90%

B20: 3F10 VHH (VHH)
VHH: B6 VHH
notes: as for B13
% inhibition of PVR binding to h-TIGIT [11]: > 90%

B21: 15A5 VHH (VHH)
VHH: QVQLVESGGGLVQAGGSLRLSCAASERTFSSFAMGWFRQAPGKEREVVAAIDPSGRYIYYKDSVKGRFTMSRDNAKSTVYLQMNSLKPDDTARYYCAARIRGEGYYTRSSFYHYWGQGTQVTVSS
notes: as for B13
% inhibition of PVR binding to h-TIGIT [11]: > 90%
